Laboratory results from article PMC8217354.

Target: T1, N-SpTad2 (Schizosaccharomyces pombe, UniProt O94642 1-202)
T1 sequence: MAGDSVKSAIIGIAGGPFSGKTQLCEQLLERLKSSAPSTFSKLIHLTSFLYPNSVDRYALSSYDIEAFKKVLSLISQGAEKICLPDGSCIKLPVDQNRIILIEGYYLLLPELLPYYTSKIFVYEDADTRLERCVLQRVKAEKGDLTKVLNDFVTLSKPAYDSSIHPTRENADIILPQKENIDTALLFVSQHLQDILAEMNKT
Assay: EMSA

B1: tRNAAla (structured_RNA)
RNA: GGGCGUGUGGCGUAGUCGGUAGCGCGCUCCCUUAGCAUGGGAGAGGUCUCCGGUUCGAUUCCGGACUCGUCCACC
B1: no binding.
